From publication PMC3575409, “Identification of a Novel Protein-Protein Interaction Motif Mediating Interaction of GPCR-Associated Sorting Proteins with G Protein-Coupled Receptors” (PLoS ONE, 2013)

B1: mutant C: derived from mutant 924–1395 by deletion of 45 AA from the C-terminus (protein, UniProt Q5JY77 924-1350, looked up, fragment)
chain: CCVSKPEDDEEMIVESWFWSRDKAIKETGTVATCESKPENEEGAIVGSWFEAEDEVDNRTDNGSNCGSRTLADEDEAIVGSWFWAGDEAHFESNPSPVFRAICRSTCSVEQEPDPSRRPQSWEEVTVQFKPGPWGRVGFPSISPFRFPKEAASLFCEMFGGKPRNMVLSPEGEDQESLLQPDQPSPEFPFQYDPSYRSVQEIREHLRAKESTEPESSSCNCIQCELKIGSEEFEELLLLMEKIRDPFIHEISKIAMGMRSASQFTRDFIRDSGVVSLIETLLNYPSSRVRTSFLENMIRMAPPYPNLNIIQTYICKVCEETLAYSVDSPEQLSGIRMIRHLTTTTDYHTLVANYMSGFLSLLATGNAKTRFHVLKMLLNLSENLFMTKELLSAEAVSEFIGLFNREETNDNIQIVLAIFENIGNNIK
B2: mutant D: derived from mutant 924–1395 by deletion of 95 AA from the C-terminus (protein, UniProt Q5JY77 924-1300, looked up, fragment)
chain: CCVSKPEDDEEMIVESWFWSRDKAIKETGTVATCESKPENEEGAIVGSWFEAEDEVDNRTDNGSNCGSRTLADEDEAIVGSWFWAGDEAHFESNPSPVFRAICRSTCSVEQEPDPSRRPQSWEEVTVQFKPGPWGRVGFPSISPFRFPKEAASLFCEMFGGKPRNMVLSPEGEDQESLLQPDQPSPEFPFQYDPSYRSVQEIREHLRAKESTEPESSSCNCIQCELKIGSEEFEELLLLMEKIRDPFIHEISKIAMGMRSASQFTRDFIRDSGVVSLIETLLNYPSSRVRTSFLENMIRMAPPYPNLNIIQTYICKVCEETLAYSVDSPEQLSGIRMIRHLTTTTDYHTLVANYMSGFLSLLATGNAKTRFHVLKML
B3: GASP-7: member of the second GASP subfamily, without GASP motif (protein)
chain: MGRTREAGCVAAGVVIGAGACYCVYRLAWGRDENEKIWDEDEESTDTSEIGVETVKGAKTNAGAGSGAKLQGDSEVKPEVSLGLEDCPGVKEKAHSGSHSGGGLEAKAKALFNTLKEQASAKAGKGARVGTISGNRTLAPSLPCPGGRGGGCHPTRSGSRAGGRASGKSKGKARSKSTRAPATTWPVRRGKFNFPYKIDDILSAPDLQKVLNILERTNDPFIQEVALVTLGNNAAYSFNQNAIRELGGVPIIAKLIKTKDPIIREKTYNALNNLSVNAENQGKIKTYISQVCDDTMVCRLDSAVQMAGLRLLTNMTVTNHYQHLLSYSFPDFFALLFLGNHFTKIQIMKLIINFTENPAMTRELVSCKVPSELISLFNKEWDREILLNILTLFENINDNIKNEGLASSRKEFSRSSLFFLFKESGVCVKKIKALANHNDLVVKVKVLKVLTKL
modifications: [35S]-methionine labelled
B4: mutant 380–1395: truncated mutant of GASP-1 that lacks the N-terminal part (protein)
chain: MTKEEAKTKARARAKQEARSEEEALIGTWFWATDESSMADEASIESSLQVEDESIIGSWFWTEEEASMGTGASSKSRPRTDGERIGDSLFGAREKTSMKTGAEATSESILAADDEQVIIGSWFWAGEEVNQEAEEETIFGSWFWVIDAASVESGVGVSCESRTRSEEEEVIGPWFWSGEQVDIEAGIGEEARPGAEEETIFGSWFWAENQTYMDCRAETSCDTMQGAEEEEPIIGSWFWTRVEACVEGDVNSKSSLEDKEEAMIPCFGAKEEVSMKHGTGVRCRFMAGAEETNNKSCFWAEKEPCMYPAGGGSWKSRPEEEEDIVNSWFWSRKYTKPEAIIGSWLWATEESNIDGTGEKAKLLTEEETIINSWFWKEDEAISEATDREESRPEAEEGDIIGSWFWAGEEDRLEPAAETREEDRLAAEKEGIVGSWFGAREETIRREAGSCSKSSPKAEEEEVIIGSWFWEEEASPEAVAGVGFESKPGTEEEEITVGSWFWPEEEASIQAGSQAVEEMESETEEETIFGSWFWDGKEVSEEAGPCCVSKPEDDEEMIVESWFWSRDKAIKETGTVATCESKPENEEGAIVGSWFEAEDEVDNRTDNGSNCGSRTLADEDEAIVGSWFWAGDEAHFESNPSPVFRAICRSTCSVEQEPDPSRRPQSWEEVTVQFKPGPWGRVGFPSISPFRFPKEAASLFCEMFGGKPRNMVLSPEGEDQESLLQPDQPSPEFPFQYDPSYRSVQEIREHLRAKESTEPESSSCNCIQCELKIGSEEFEELLLLMEKIRDPFIHEISKIAMGMRSASQFTRDFIRDSGVVSLIETLLNYPSSRVRTSFLENMIRMAPPYPNLNIIQTYICKVCEETLAYSVDSPEQLSGIRMIRHLTTTTDYHTLVANYMSGFLSLLATGNAKTRFHVLKMLLNLSENLFMTKELLSAEAVSEFIGLFNREETNDNIQIVLAIFENIGNNIKKETVFSDDDFNIEPLISAFHKVEKFAKELQGKTDNQNDPEGDQEN
modifications: [35S]-methionine labelled
B5: GASP-2: member of the GASP family, two GASP motifs (protein)
chain: MTGAEIEPSAQAKPEKKAGEEVIAGPERENDVPLVVRPKVRTQATTGARPKTETKSVPAARPKTEAQAMSGARPKTEVQVMGGARPKTEAQGITGARPKTDARAVGGARSKTDAKAIPGARPKDEAQAWAQSEFGTEAVSQAEGVSQTNAVAWPLATAESGSVTKSKGLSMDRELVNVDAETFPGTQGQKGIQPWFGPGEETNMGSWCYSRPRAREEASNESGFWSADETSTASSFWTGEETSVRSWPREESNTRSRHRAKHQTNPRSRPRSKQEAYVDSWSGSEDEASNPFSFWVGENTNNLFRPRVREEANIRSKLRTNREDCFESESEDEFYKQSWVLPGEEANSRFRHRDKEDPNTALKLRAQKDVDSDRVKQEPRFEEEVIIGSWFWAEKEASLEGGASAICESEPGTEEGAIGGSAYWAEEKSSLGAVAREEAKPESEEEAIFGSWFWDRDEACFDLNPCPVYKVSDRFRDAAEELNASSRPQTWDEVTVEFKPGLFHGVGFRSTSPFGIPEEASEMLEAKPKNLELSPEGEEQESLLQPDQPSPEFTFQYDPSYRSVREIREHLRARESAESESWSCSCIQCELKIGSEEFEEFLLLMDKIRDPFIHEISKIAMGMRSASQFTRDFIRDSGVVSLIETLLNYPSSRVRTSFLENMIHMAPPYPNLNMIETFICQVCEETLAHSVDSLEQLTGIRMLRHLTMTIDYHTLIANYMSGFLSLLTTANARTKFHVLKMLLNLSENPAVAKKLFSAKALSIFVGLFNIEETNDNIQIVIKMFQNISNIIKSGKMSLIDDDFSLEPLISAFREFEELAKQLQAQIDNQNDPEVGQQS
modifications: [35S]-methionine labelled

Assays:
Type in all cases: binding
GST-fused DOR C-tail = assay: GST-pull down, DOR C-tail; conditions: compared with full-length GASP-1
Description: (§1) cDNAs encoding the cytoplasmic C-tail of 14 GPCRs and 2 one-transmembrane receptors were cloned into the pGEX-2T prokaryotic expression vector downstream the GST sequence. The following pGEX constructs were engineered: pGEX-DOR encoding residues 314–372 of the δ-opioid receptor (referring to Swiss-Prot accession number U10504), pGEX-MOR encoding residues 334–400 of the µ-opioid receptor (L29301), pGEX-KOR encoding residues 326–380 of the κ–opioid receptor (U17298), pGEX-ORL1 encoding residues 315–370 of the opioid receptor-like 1 (X77130), pGEX-M1 encoding residues 414–460 of the muscarinic M1 acetylcholine receptor (X52068), pGEX-M2 encoding residues 436–466 of the muscarinic M2 acetylcholine receptor (M16404), pGEX- ADRB1 encoding residues 373–477 of the β1 adrenergic receptor (J03019), pGEX-ADRB2 encoding residues 322–413 of the β2 adrenergic receptor (P07550), pGEX-CALCR encoding residues 407–490 of the calcitonin receptor (L00587), pGEX-CNR2 encoding residues 295–360 of the cannabinoid type 2 receptor (P34972), pGEX-5HT7 encoding residues 380–445 of the 5-hydroxytryptamine 7 receptor (L21195), pGEX-H2 encoding residues 284–349 of the histamine 2 receptor (S57565), pGEX-TXA2 encoding residues 304–343 of the α isoform of the thromboxane A2 receptor (D38081), pGEX-FZ4 encoding residues 493–537 of the frizzled 4 receptor (AB032417), pGEX-TGFβ encoding residues 805–849 of the type III transforming growth factor b receptor (L07594), pGEX-IGF1 encoding residues 1268–1367 of the insulin growth factor I receptor (X04434). Free GST was produced by using the pGEX-4T3 expression vector without insert. The same plasmid was used to clone the cDNA encoding a central domain of GASP-1, corresponding to amino acids 380 to 1073, downstream the GST sequence. All these plasmids were transformed into the Escherichia coli BL21 strain and expression was induced using 1mM of isopropylthiogalactoside for 2 h at 37°C. Bacteria were then pelleted, resuspended in PBS supplemented with cOmplete protease inhibitors (Roche), lysed at 1.5 kbar using a basic Z cell disrupter (constant system) and finally the lysates were cleared by centrifugation (10,000g, 15 min, 4°C).
(§2) cDNAs encoding GASP-1 and GASP-2 were cloned into the pcDNA3 eukaryotic expression vectors. cDNAs encoding GASP-3, -6, -7, and -9 were subcloned into pcDNA3.1 vectors. All the clones were controlled by DNA sequencing. The in vitro production was performed by using the TNT Quick-coupled Transcription/Translation T7 kit (Promega) in presence of [^35S]-Methionine according to the instructions from the manufacturer.
(§3) GST-fusion proteins were immobilized on glutathione-coupled Sepharose beads (GE Healthcare) for 1 h at 4°C and incubated with [^35S]-labelled in vitro translated GASP proteins or their truncated or mutated forms in ice-cold binding buffer containing: 20 mM Tris-HCl pH 7.4, 150 mM NaCl, 1 mM EDTA, 1 mM DTT, 10% glycerol and 1% Triton X-100. The mixture was incubated for 1 h at 4°C with gentle rocking. The beads were washed five times with the same ice-cold buffer, resuspended in 30 µl SDS-PAGE sample buffer, incubated 10 min at 65°C, and pelleted for 60 s at 3000 g. The supernatants were then analyzed by SDS-PAGE, the gels were stained with Coomassie blue to visualize GST-fusion proteins, dried and analyzed using a Phosphor-imager (Personal Molecular Imager FX, Biorad) to visualize [^35S]-labelled GASPs. Quantification was performed with the Quantity One software (Biorad). GST-pull down quantification data were analyzed using GraphPad Prism 4.03 (GraphPad Software). Quantifications presented are means of at least three independent experiments.

[1] = test system: GST-fused TGFβ (type III transforming growth factor β receptor) C-tail; assay: GST-pull down, TGFβ C-tail; conditions: non-GPCR control
Description: as §1, §2, §3

[2] = test system: GST-fused IGF1 (insulin growth factor I receptor) C-tail; assay: GST-pull down, IGF1 C-tail; conditions: non-GPCR control
Description: as §1, §2, §3

GST-fused GPCR C-tails = assay: GST-pull down, GPCR C-tails; conditions: for interaction with GPCR C-tails: twelve GPCR C-tails
Description: as §1, §2
as §3, with “experiments. […]” for “experiments.”

GST-fused ADRB1 C-tail = assay: GST-pull down, ADRB1 C-tail; conditions: compared with full-length GASP-1
Description: as §1, §2, §3

GST-fused M1 C-tail = assay: GST-pull down, M1 C-tail; conditions: compared with full-length GASP-1
Description: as §1, §2, §3

| Molecule | interaction of truncated GASP-1 with DOR C-tail (GST-fused DOR C-tail) | interaction with TGFβ C-tail [1] | interaction with IGF1 C-tail [2] | interaction with GPCR C-tails (GST-fused GPCR C-tails) | further results |
| --- | --- | --- | --- | --- | --- |
| B1 | strong interaction |  |  |  |  |
| B2 | completely lost |  |  |  |  |
| B3 |  | No interaction was detected | No interaction was detected | weak to medium interactions and weak |  |
| B4 | interacted similarly |  |  |  | interaction of truncated GASP-1 with ADRB1 C-tail (words) (GST-fused ADRB1 C-tail): interacted similarly; interaction of truncated GASP-1 with M1 C-tail (words) (GST-fused M1 C-tail): interacted similarly |
| B5 |  | no interaction was detected | no interaction was detected | medium to strong interactions | GASP input retained by GPCR C-tails (GST-fused GPCR C-tails; percent of GASP input): > 10% |
